From patent publication US20230295310A1 (ABCELLERA BIOLOGICS, published 2023)

Each binder was assayed against EGFR on HeLa cells (UniProt P00533 25-1210, limits assumed) (assay: cell-based or functional assay).

Binder	X… HeLa EC50 [pM]	Max killing % [%]
GOMP001_bsAb_014 (bispecific antibody, human IgG1, kappa, L234A L235A) heavy 1: QVQLVQSGAEVKKPGASVKVSCKASGYTFTSYDINWVRKATGQGLEWMGWMNPKSGKTGYAQEFQGRITMTRNTPISTVYMDLSSLRSEDTAVYYCAREGHYDFWTGYYSFDYWGQGTLVTVSSASTKGPSVFPLAPSSKSTSGGTAALGCLVADYFPEPVTVSWNSGALTSGVHTFPAVLQSSGLYSLSSVVTVPSSSLGTQTYICNVNHKPSNTKVDEKVEPKSCDKTHTCPPCPAPEAAGGPSVFLFPPKPKDTLMISRTPEVTCVVVDVSHEDPEVKFNWYVDGVEVHNAKTKPREEQYNSTYRVVSVLTVLHQDWLNGKEYKCKVSNKALPAPIEKTISKAKGQPREPQVYTLPPSREEMTDNQVSLTCLVKGFYPSDIAVEWESNGQPENNYKTTPPVLMSDGSFFLASKLTVDKSRWQQGNVFSCSVMHEALHNHYTQKSLSLSPG light 1: RIQMTQSPSSLSASVGDRVTITCRASQGIRNDLGWYQDTPGKAPKRLIYAASSLQSGVPSRFSGSGSGTEFTLTISSLQPEDFATYYCLQHYSYPYTFGQGTKLEIKRTVAAPSVFIFPPSDKQLKSGTARVVCLLNNFYPREAKVQWKVDNALQSGNSQESVTEQDSKDSTYSLSSTLTLSKADYEKHKVYACEVTHQGLSSPVTKSFNRGEC heavy 2: QVQLVQSGAEVKKPGASVKVSCKASGYTFTSHWMHWVRYAPGQGLEWIGEFNPSNGRTNYNEKFKSKATMTVDTSTNTAYMELSSLRSEDTAVYYCASRDYDYDGRYFDYWGRGTLVTVSSASTKGPSVFPLAPSSKSTSGGTAALGCLVKDYFPEPVTVSWNSGALTSGVHTFPAVLQSSGLYSLSSVVTVPSSSLGTQTYICNVNHKPSNTKVDKKVEPKSCDKTHTCPPCPAPEAAGGPSVFLFPPKPKDTLMISRTPEVTCVVVDVSHEDPEVKFNWYVDGVEVHNAKTKPREEQYNSTYRVVSVLTVLHQDWLNGKEYKCKVSNKALPAPIEKTISKAKGQPRRPRVYTLPPSREEMTKNQVSLVCLVKGFYPSDIAVEWESNGQPENNYKTTPPVLDSDGSFFLYSVLTVDKSRWQQGNVFSCSVMHEALHNHYTQKSLSLSPG light 2: DIQMTQSPSSLSASVGDRVTITCSASSSVTYMYWYQRKPGDAPKLLIYDTSNLASGVPSRFSGSGSGTDYTFTISSLQPEDIATYYCQQWSSHIFTFGQGTKVEIKRTVAAPSVFIFPPSDEQLKSGTASVVCLLNNFYPREAKVQWKVDNALQSGNSQESVTEQDSKDSTYSLSSTLTLSKADYEKHKVYACEVTHQGLSSPVTKSFNRGEC	131	95
GOMP001_bsAb_016 (bispecific antibody, human IgG1, kappa, L234A L235A) heavy 1: QVQLVESGGGVVQPGRSLRLSCAASGFTFSGYGMHWVRKAPGKGLDWVAIIYYNGNNKYYADEVKGRFTISRDNSKNTLYLQMNSLRAEDTAVYYCARGGGYNWFDPWGQGTLVIVSSASTKGPSVFPLAPSSKSTSGGTAALGCLVADYFPEPVTVSWNSGALTSGVHTFPAVLQSSGLYSLSSVVTVPSSSLGTQTYICNVNHKPSNTKVDEKVEPKSCDKTHTCPPCPAPEAAGGPSVFLFPPKPKDTLMISRTPEVTCVVVDVSHEDPEVKFNWYVDGVEVHNAKTKPREEQYNSTYRVVSVLTVLHQDWLNGKEYKCKVSNKALPAPIEKTISKAKGQPREPQVYTLPPSREEMTDNQVSLTCLVKGFYPSDIAVEWESNGQPENNYKTTPPVLMSDGSFFLASKLTVDKSRWQQGNVFSCSVMHEALHNHYTQKSLSLSPG light 1: RIQMTQSPSSLSASVGDRVTITCRPSQSISNYLNWYQDKPGKAPKLLIYAASSLQSGVPSRFSGSGSGTDFTLTISSLQPEDFATYYCQQSYSTPFTFGRGTRLEIKRTVAAPSVFIFPPSDKQLKSGTARVVCLLNNFYPREAKVQWKVDNALQSGNSQESVTEQDSKDSTYSLSSTLTLSKADYEKHKVYACEVTHQGLSSPVTKSFNRGEC heavy 2: QVQLVQSGAEVKKPGASVKVSCKASGYTFTSHWMHWVRYAPGQGLEWIGEFNPSNGRTNYNEKFKSKATMTVDTSTNTAYMELSSLRSEDTAVYYCASRDYDYDGRYFDYWGRGTLVTVSSASTKGPSVFPLAPSSKSTSGGTAALGCLVKDYFPEPVTVSWNSGALTSGVHTFPAVLQSSGLYSLSSVVTVPSSSLGTQTYICNVNHKPSNTKVDKKVEPKSCDKTHTCPPCPAPEAAGGPSVFLFPPKPKDTLMISRTPEVTCVVVDVSHEDPEVKFNWYVDGVEVHNAKTKPREEQYNSTYRVVSVLTVLHQDWLNGKEYKCKVSNKALPAPIEKTISKAKGQPRRPRVYTLPPSREEMTKNQVSLVCLVKGFYPSDIAVEWESNGQPENNYKTTPPVLDSDGSFFLYSVLTVDKSRWQQGNVFSCSVMHEALHNHYTQKSLSLSPG light 2: DIQMTQSPSSLSASVGDRVTITCSASSSVTYMYWYQRKPGDAPKLLIYDTSNLASGVPSRFSGSGSGTDYTFTISSLQPEDIATYYCQQWSSHIFTFGQGTKVEIKRTVAAPSVFIFPPSDEQLKSGTASVVCLLNNFYPREAKVQWKVDNALQSGNSQESVTEQDSKDSTYSLSSTLTLSKADYEKHKVYACEVTHQGLSSPVTKSFNRGEC	19.2	92

Further lines, with some results ahead:

X… HeLa EC50 [pM]	Binder	Max killing % [%]
179	GOMP001_bsAb_015 (bispecific antibody, human IgG1, kappa, L234A L235A) heavy 1: QVQLVQSGAEVKKPGASVKVSCKASGYTFTSHWMHWVRKAPGQGLEWIGEFNPSNGRTNYNEEFKSKATMTVDTSTNTAYMELSSLRSEDTAVYYCASRDYDYDGRYFDYWGQGTLVTVSSASTKGPSVFPLAPSSKSTSGGTAALGCLVADYFPEPVTVSWNSGALTSGVHTFPAVLQSSGLYSLSSVVTVPSSSLGTQTYICNVNHKPSNTKVDEKVEPKSCDKTHTCPPCPAPEAAGGPSVFLFPPKPKDTLMISRTPEVTCVVVDVSHEDPEVKFNWYVDGVEVHNAKTKPREEQYNSTYRVVSVLTVLHQDWLNGKEYKCKVSNKALPAPIEKTISKAKGQPREPQVYTLPPSREEMTDNQVSLTCLVKGFYPSDIAVEWESNGQPENNYKTTPPVLMSDGSFFLASKLTVDKSRWQQGNVFSCSVMHEALHNHYTQKSLSLSPG light 1: RIQMTQSPSSLSASVGDRVTITCSASSSVTYMYWYQDKPGKAPKLLIYDTSNLASGVPSRFSGSGSGTDYTFTISSLQPEDIATYYCQQWSSHIFTFGQGTKVEIKRTVAAPSVFIFPPSDKQLKSGTARVVCLLNNFYPREAKVQWKVDNALQSGNSQESVTEQDSKDSTYSLSSTLTLSKADYEKHKVYACEVTHQGLSSPVTKSFNRGEC heavy 2: QVQLVESGGGVVQPGRSLRLSCAASGFTFSGYGMHWVRYAPGKGLDWVAIIYYNGNNKYYADRVKGRFTISRDNSKNTLYLQMNSLRAEDTAVYYCARGGGYNWFDPWGRGTLVIVSSASTKGPSVFPLAPSSKSTSGGTAALGCLVKDYFPEPVTVSWNSGALTSGVHTFPAVLQSSGLYSLSSVVTVPSSSLGTQTYICNVNHKPSNTKVDKKVEPKSCDKTHTCPPCPAPEAAGGPSVFLFPPKPKDTLMISRTPEVTCVVVDVSHEDPEVKFNWYVDGVEVHNAKTKPREEQYNSTYRVVSVLTVLHQDWLNGKEYKCKVSNKALPAPIEKTISKAKGQPRRPRVYTLPPSREEMTKNQVSLVCLVKGFYPSDIAVEWESNGQPENNYKTTPPVLDSDGSFFLYSVLTVDKSRWQQGNVFSCSVMHEALHNHYTQKSLSLSPG light 2: not shown	100
705	GOMP001_bsAb_017 (bispecific antibody, human IgG1, kappa, L234A L235A) heavy 1: QVQLVQSGAEVKKPGASVKVSCKASGYTFTSHWMHWVRKAPGQGLEWIGEFNPSNGRTNYNEEFKSKATMTVDTSTNTAYMELSSLRSEDTAVYYCASRDYDYDGRYFDYWGQGTLVTVSSASTKGPSVFPLAPSSKSTSGGTAALGCLVADYFPEPVTVSWNSGALTSGVHTFPAVLQSSGLYSLSSVVTVPSSSLGTQTYICNVNHKPSNTKVDEKVEPKSCDKTHTCPPCPAPEAAGGPSVFLFPPKPKDTLMISRTPEVTCVVVDVSHEDPEVKFNWYVDGVEVHNAKTKPREEQYNSTYRVVSVLTVLHQDWLNGKEYKCKVSNKALPAPIEKTISKAKGQPREPQVYTLPPSREEMTDNQVSLTCLVKGFYPSDIAVEWESNGQPENNYKTTPPVLMSDGSFFLASKLTVDKSRWQQGNVFSCSVMHEALHNHYTQKSLSLSPG light 1: RIQMTQSPSSLSASVGDRVTITCSASSSVTYMYWYQDKPGKAPKLLIYDTSNLASGVPSRFSGSGSGTDYTFTISSLQPEDIATYYCQQWSSHIFTFGQGTKVEIKRTVAAPSVFIFPPSDKQLKSGTARVVCLLNNFYPREAKVQWKVDNALQSGNSQESVTEQDSKDSTYSLSSTLTLSKADYEKHKVYACEVTHQGLSSPVTKSFNRGEC heavy 2: EVQLVESGGDLVQPGRSLRLSCAASGFTFDDCVIHWVRYAPGKGLEWVSGITWNSGRIGYADRVKGRFTISRDNAKNSLYLQMNSLRVEDTALYYCAKEGNYDFWSTYYRGYFDLWGRGTLVTVSSASTKGPSVFPLAPSSKSTSGGTAALGCLVKDYFPEPVTVSWNSGALTSGVHTFPAVLQSSGLYSLSSVVTVPSSSLGTQTYICNVNHKPSNTKVDKKVEPKSCDKTHTCPPCPAPEAAGGPSVFLFPPKPKDTLMISRTPEVTCVVVDVSHEDPEVKFNWYVDGVEVHNAKTKPREEQYNSTYRVVSVLTVLHQDWLNGKEYKCKVSNKALPAPIEKTISKAKGQPRRPRVYTLPPSREEMTKNQVSLVCLVKGFYPSDIAVEWESNGQPENNYKTTPPVLDSDGSFFLYSVLTVDKSRWQQGNVFSCSVMHEALHNHYTQKSLSLSPG light 2: DIQMTQSPSSLSASVGDRVTITCRASQGIRNDLGWYQRKPGDAPKRLIYAASSLQGGVPLRFSGSGSGTEFTLTISSLQPEDFATYYCLQHNSYPYTFGQGTKLEIKRTVAAPSVFIFPPSDEQLKSGTASVVCLLNNFYPREAKVQWKVDNALQSGNSQESVTEQDSKDSTYSLSSTLTLSKADYEKHKVYACEVTHQGLSSPVTKSFNRGEC	91.4
